Numbering of substitutions follows the chain as printed. Blank lines part the entries; values can stand above or below the binder they belong to.
Tests used:
[1] = molecular target: T1, monkey TIM-3 extracellular domain protein with hFc tag (cTIM-3-hFc) (monkey); assay: ELISA, coated monkey TIM-3 ECD protein, 0.0001 nM antibody
T1 construct: not shown: human IgG Fc fragment (hFc) of the pCpC vector
T1 chain: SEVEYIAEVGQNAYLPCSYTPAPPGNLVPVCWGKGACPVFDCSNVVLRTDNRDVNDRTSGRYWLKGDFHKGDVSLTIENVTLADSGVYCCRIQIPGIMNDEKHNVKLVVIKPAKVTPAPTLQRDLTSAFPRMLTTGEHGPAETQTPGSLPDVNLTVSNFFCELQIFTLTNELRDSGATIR

[2] = molecular target: T2, human TIM-3 extracellular domain protein with hFc tag (hTIM-3-hFc) (human, UniProt Q8TDQ0 22-200); assay: ELISA, coated human TIM-3 ECD protein, 0.0067 nM antibody
T2 construct: not shown: human IgG Fc fragment (hFc) of the pCpC vector
T2 sequence: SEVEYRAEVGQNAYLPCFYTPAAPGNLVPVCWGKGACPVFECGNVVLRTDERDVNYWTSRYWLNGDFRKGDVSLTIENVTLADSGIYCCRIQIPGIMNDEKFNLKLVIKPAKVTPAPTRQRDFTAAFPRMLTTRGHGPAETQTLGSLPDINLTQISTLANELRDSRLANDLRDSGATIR

[3] = molecular target: T2, human TIM-3 extracellular domain …; assay: ELISA, coated human TIM-3 ECD protein, 66.667 nM antibody
[4] = molecular target: T3, monkey TIM-3 on CHOK1 stable cell line (CHOK1-cTIM-3) (monkey); assay: FACS, CHOK1-cTIM-3 cells, 40 nM antibody
T3 chain: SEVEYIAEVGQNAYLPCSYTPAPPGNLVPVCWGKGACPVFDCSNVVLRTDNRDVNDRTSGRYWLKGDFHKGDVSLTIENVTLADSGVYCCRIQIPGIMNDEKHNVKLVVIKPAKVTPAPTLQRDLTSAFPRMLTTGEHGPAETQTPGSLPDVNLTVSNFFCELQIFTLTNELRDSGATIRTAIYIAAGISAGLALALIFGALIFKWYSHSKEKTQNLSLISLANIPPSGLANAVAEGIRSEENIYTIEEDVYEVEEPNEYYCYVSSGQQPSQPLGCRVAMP

[5] = molecular target: T1, monkey TIM-3 extracellular domain …; assay: ELISA, coated monkey TIM-3 ECD protein, 0.0067 nM antibody
[6] = molecular target: T4, monkey TIM-3 protein with hFc tag (cTIM-3-hFc protein) (monkey; human); assay: ELISA, coated cTIM-3-hFc; antibody 0.6667 nM
T4 construct: Made in HEK293 cells; also called monkey TIM-3 extracellular domain protein; not shown: human IgG Fc fragment (hFc) of the pCpC vector
T4 chain: T1 chain
Text: (§1) The amino acid sequence 22-200 of the extracellular domain of the human TIM-3 protein described in the step of Example 1 (as shown in SEQ ID NO. 71 in the sequence listing) was cloned into a pCpC vector having a human IgG Fc fragment (hFc), and transfected into HEK293 cells. The cell culture medium was collected, and purified to obtain the human TIM-3 protein with hFc tag (herein referred to as hTIM-3-hFc protein). The amino acid sequence 22-201 of the extracellular domain of the monkey TIM-3 protein (as shown in SEQ ID NO. 72 in the sequence listing) was cloned into a pCpC vector having a human IgG Fc fragment (hFc), and transfected into HEK293 cells. The cell culture medium was collected, and purified to obtain the monkey TIM-3 protein with hFc tag (herein referred to as cTIM-3-hFc protein). […] The cell culture medium was collected, and purified to obtain the murine TIM-3 protein with hFc tag (herein referred to as mTIM-3-hFc protein). Purified human, monkey, and mouse TIM-3 extracellular domain proteins (hTIM-3-hFc, cTIM-3-hFc, and mTIM-3-hFc) were diluted with PBS to a final concentration of 1.0 μg/ml and then added to a 96-well ELISA plate with 100 μl per well. The plate was sealed with plastic film and incubated overnight at 4° C. The plate was washed 4 times with the plate washing solution (PBS+0.01% Tween20) on the next day, and added with the blocking solution (PBS+0.01% Tween20+1% BSA) and sealed at room temperature for 1-2 hours. The blocking solution was poured out. 50-100 μl of the antibody sample to be tested was added to each well. The plate was incubated at 37° C. for 1-2 hours, and washed 2-3 times with plate washing solution (PBS+0. 01% Tween20). HRP (horseradish peroxidase) labeled secondary antibody was added. The plate was incubated at 37° C. for 1-2 hours, and washed 2-3 times with plate washing solution (PBS+0. 01% Tween20). […] of TMB substrate was added to each well. After incubated at room temperature for 15-30 minutes, the plate was added with […] stop solution (1.0N HCl) to each well. An ELISA plate reader (TiterMax 384plus, Molecular Device) was used to read the A450 nm value.

[7] = molecular target: T4, monkey TIM-3 protein with hFc tag …; assay: ELISA, coated cTIM-3-hFc; antibody 0.0007 nM
Text: as §1

[8] = molecular target: T2, human TIM-3 extracellular domain …; assay: FACS, blocking of hTIM-3-hFc binding to phosphatidylserine on apoptotic Jurkat cells, 2.469 nM antibody
Experimental: Jurkat cells were treated with 1 μM staurosporine at 37° C. for 2 hours to induce apoptosis. The presence of phosphatidylserine was detected by Annexin V-FITC cell apoptosis detection kit. […] The cells were washed 1-2 times with PBS buffer, and after cell counting, the cells were diluted to 1-2×10⁶ cells per milliliter with binding buffer, and added to a 96-well FACS reaction plate at 100 microliters per well. The antibody sample to be tested and 2 μg/ml hTIM-3-hFc protein were prepared with binding buffer, and mixed equally in volume. The mixture was incubated at room temperature for 30 minutes, then the FACS reaction plate incubated with apoptotic cells was centrifuged to discard the supernatant, and the above mixture was added to the apoptotic cells at 100 microliters per well and incubated at room temperature for 1 hour. The plate was washed twice with the binding buffer by centrifugation, added with 100 microliters of fluorescent (Alexa 488)-labeled secondary antibodies per well, and incubated for half an hour. The plate was washed 2-3 times with the binding buffer by centrifugation, added with 100 microliters of PBS per well to suspend cells, and detected using FACS (FACS Calibur, BD) and the results were analyzed. The results are shown in Table 15 and FIG. 15, wherein the IgG control is human IgG, and the data in the table is the inhibition rate (%).

OD450 [1]: 0.17
OD450 [2]: 0.29
OD450 [3]: 3.1
Mean fluorescence intensity [4]: 336
OD450 [5]: 0.37
B1: 34B6D8 fully human TIM-3 antibody (human IgG4, kappa) (antibody, V domains shown)
VH: EVQLVESGGGLVQPGGSLRLSCAASGFTFSTYWMTWVRQAPGKRLEWVANIKQGGGDKYYVDSVKGRFTISTDNAKNSLYLQMNSLRAEDTAVYYCARGSNWFDPWGQGTLVTVSS
VL: EIVMTQSPATLSMSPGERATLSCRASQSVYDNLAWYQQKPGQAPRLLIYGASTRATGIPARFSGSGSGTEFTLTISSLQSEDFALYYCQQYTHWPITFGQGTRLEIK

OD450 [6]: 3.44
OD450 [7]: 0.61
B2: 34B6D8 (TIM-3 antibody purified from hybridoma, chimeric antibody of Example 2) (antibody, V domains shown)
VH: B1 VH
VL: B1 VL
notes: From hybridoma of Harbour H2L2 transgenic mice: human variable regions, rat constant regions

OD450 [1]: 0.13
OD450 [2]: 0.27
OD450 [3]: 3.08
Mean fluorescence intensity [4]: 366
OD450 [5]: 0.33
Inhibition ratio (%) [8]: 5.8%
B3: 215A8F2 fully human TIM-3 antibody (human IgG4, kappa) (antibody, V domains shown)
VH: QVQLQQWGAGLLKPSETLSLTCTVYGGSFSGYYWNWIRQPPGKGLEWLGEINHSGSTNYNPSLKRRVTISVDTSKNQFSLKLSSVTAADTAVYYCARVYYYGPFDFWGQGTLVTVSS
VL: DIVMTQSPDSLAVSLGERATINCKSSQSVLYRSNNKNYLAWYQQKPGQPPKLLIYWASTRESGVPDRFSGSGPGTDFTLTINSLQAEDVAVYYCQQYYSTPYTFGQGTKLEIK

OD450 [6]: 3.26
OD450 [7]: 0.55
B4: 215A8F2 (TIM-3 antibody purified from hybridoma, chimeric antibody of Example 2) (antibody, V domains shown)
VH: B3 VH
VL: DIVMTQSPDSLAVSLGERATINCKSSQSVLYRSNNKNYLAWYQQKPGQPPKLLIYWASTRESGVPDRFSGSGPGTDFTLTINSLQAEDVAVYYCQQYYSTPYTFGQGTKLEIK
notes: as for B2

OD450 [1]: 0.13
OD450 [2]: 0.32
OD450 [3]: 3.02
Mean fluorescence intensity [4]: 336
OD450 [5]: 0.18
Inhibition ratio (%) [8]: 23.7%
B5: 7A4F10 fully human TIM-3 antibody (human IgG4, kappa) (antibody, V domains shown)
VH: EVQLLESGGGLVQPGGSLRLSCAASGFTFRTHLISWVRQAPGKGLEWVAAITGSGGSTYYADSVKGRFIISRDNSKNTLFLQMNSLRAEDTAVYYCAKDGGSGSYDDFWGQGTLVTVSS
VL: ETVLTQSPVTLSLSPGERATLSCRASQSVGSYLAWYQQKPGQAPRLLIYDASNRATGIPARFSGSGSGTDFTLTISSLEPEDFAVYYCQQRSNWPPTFGQGTKVEIK

OD450 [6]: 1.35
OD450 [7]: 0.55
B6: 7A4F10 (TIM-3 antibody purified from hybridoma, chimeric antibody of Example 2) (antibody, V domains shown)
VH: B5 VH
VL: B5 VL
notes: as for B2

OD450 [1]: 0.17
OD450 [2]: 0.23
OD450 [3]: 3.06
Mean fluorescence intensity [4]: 269
OD450 [5]: 0.32
B7: 57F4E5 fully human TIM-3 antibody (human IgG4, kappa) (antibody, V domains shown)
VH: EVQLVESGGGLVQPGGSLRLSCAASGFTFSSYWMSWVRQAPGKGLEWVANIKQDGSEKYYVDSVKGRFTISRDSAKNSLYLQMNSLRAEDTAMYFCARDSNFFDYWGQGTLVTVSS
VL: ETVMTQSPATLSVSPGERATLSCRASQSVSSNLAWYQRKPGQAPRLLIYFSSTRATGIPARFSGSGSGTEFTLTISSLQSEDFAVYYCQQYNNWPLTFGGGTKVEIK

OD450 [1]: 0.14
OD450 [2]: 0.27
OD450 [3]: 2.77
Mean fluorescence intensity [4]: 376
OD450 [5]: 0.3
Inhibition ratio (%) [8]: 10.9%
B8: 134H3G6 fully human TIM-3 antibody (human IgG4, kappa) (antibody, V domains shown)
VH: EVQLVESGGGLVQPGGSLRLSCAASGFTFSNSWMTWVRQAPGKGLEWVANIKQAGTEKYYVDSVKGRFTISRDNAKNSLYLQMNSLRAEDTAVYYCNSGSNYFDYWGQGTLVTVSS
VL: B7 VL with T2I, S26R, S28N, V29F, S30Y, R38Q, F50G, S51A

OD450 [6]: 1.89
OD450 [7]: 0.54
B9: 18D2H2 (TIM-3 antibody purified from hybridoma, chimeric antibody of Example 2) (antibody, V domains shown)
VH: B1 VH with G10D, K43R, R44G, G54D, G56S, D57A, I70L, T72R, N74D, P105Y
VL: B7 VL with S26N, S28N, S30Y, R38Q, F50D, S51A, I58F
notes: as for B2

OD450 [6]: 1.22
OD450 [7]: 0.55
B10: 134H3G6 (TIM-3 antibody purified from hybridoma, chimeric antibody of Example 2) (antibody, V domains shown)
VH: B8 VH
VL: B7 VL with T2I, S26R, S28N, V29F, S30Y, R38Q, F50G, S51A
notes: as for B2

OD450 [6]: 3.41
OD450 [7]: 0.61
B11: 39E5H1 (TIM-3 antibody purified from hybridoma, chimeric antibody of Example 2) (antibody, V domains shown)
VH: B1 VH with T31S, T35S, R44G, Q53R, G56S, D57E, K58R, T72G, L79V
VL: B1 VL with I2T, T10I, M13V, D31S, P40L, G50D, L85V, T92N, H93N
notes: as for B2

OD450 [1]: 0.17
OD450 [2]: 0.25
OD450 [3]: 3.01
Mean fluorescence intensity [4]: 337
OD450 [5]: 0.3
B12: 39E5H1 fully human TIM-3 antibody (human IgG4, kappa) (antibody, V domains shown)
VH: B1 VH with T31S, T35S, R44G, Q53R, G56S, D57E, K58R, T72G, L79V
VL: B1 VL with I2T, T10I, M13V, D31S, P40L, G50D, L85V, T92N, H93N

OD450 [6]: 3.45
OD450 [7]: 0.64
B13: 57F4E5 (TIM-3 antibody purified from hybridoma, chimeric antibody of Example 2) (antibody, V domains shown)
VH: B7 VH
VL: B7 VL
notes: as for B2
